The text below walks through data of patent publication US20250011448A1 (STAIDSON BIOPHARMA, published 2025).

Assay [1] deals with T1, human TNFR2 extracellular domain with C-terminal 10×His tag (human, UniProt P20333 23-257).
T1 construct: also called huTNFR2-His; His-tag-huTNFR2
T1 sequence: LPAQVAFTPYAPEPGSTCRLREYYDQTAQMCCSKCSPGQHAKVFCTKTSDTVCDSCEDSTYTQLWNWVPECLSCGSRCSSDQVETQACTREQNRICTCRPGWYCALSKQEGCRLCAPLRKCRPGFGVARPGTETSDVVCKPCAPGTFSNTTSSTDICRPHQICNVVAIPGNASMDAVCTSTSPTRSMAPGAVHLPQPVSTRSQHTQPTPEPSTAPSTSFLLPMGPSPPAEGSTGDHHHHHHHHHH
As to the kind of experiment: BLI (Octet RED96), AHC capture, His-tag-huTNFR2 in solution; antibody sample after 4 weeks at 40 °C. The method, then:
(§1) The following kinetic assay was performed using anti-human IgG Fc capture (AHC) biosensors (ForteBio) in kinetics buffer (PBS, 0.1% Tween-20 and 1% bovine serum albumin): (a) antibody sample (2 μg/mL) for 300 see, (b) baseline for 120 see, (c) association with His-tag-huTNFR2 (2.5, 0.5 and 0 μg/mL) for 420 sec and (d) dissociation for 1200 sec. Data fitting and analysis was performed with Octet data analysis software 8.0 (ForteBio) using a 1:1 binding model after Savitzky-Golay filtering.
(§2) The binding kinetic data were presented in Table 18, showing that the binding with human-TNFR2 was not affected under the accelerated thermal stressed condition (4 weeks at […]
For orientation: Biolayer interferometry detects binding as a change in optical thickness at a sensor tip.

Assay [2] deals with T1, human TNFR2 extracellular domain with …. The experiment in a line: BLI (Octet RED96), AHC capture, His-tag-huTNFR2 in solution; antibody sample at week 0 of storage at 40 °C. As to the method:
as §1, §2

Assay [3] has as its target T2, human TNFR2 expressed on cells (Expi293 cells stably expressing huTNFR2) (human, UniProt P20333 23-461).
T2 construct: whole, on cells; Also used here as the target of the Treg assay (native TNFR2 on human primary Treg cells); also called huTNFR2 expressed cells; Expi293-TNFR2 cells
T2 sequence (looked up): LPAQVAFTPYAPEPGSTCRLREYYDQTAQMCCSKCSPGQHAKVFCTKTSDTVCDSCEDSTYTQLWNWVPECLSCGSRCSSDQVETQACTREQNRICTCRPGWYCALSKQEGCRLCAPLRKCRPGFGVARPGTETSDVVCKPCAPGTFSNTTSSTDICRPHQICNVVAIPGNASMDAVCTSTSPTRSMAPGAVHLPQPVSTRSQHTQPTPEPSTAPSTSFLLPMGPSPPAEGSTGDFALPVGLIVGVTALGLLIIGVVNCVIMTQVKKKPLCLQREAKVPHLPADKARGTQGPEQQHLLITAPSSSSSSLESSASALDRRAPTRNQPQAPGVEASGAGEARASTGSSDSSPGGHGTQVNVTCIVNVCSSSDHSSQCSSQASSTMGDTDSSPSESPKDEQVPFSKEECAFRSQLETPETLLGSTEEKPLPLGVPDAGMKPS
The experiment in a line: flow cytometry on Expi293 cells stably expressing huTNFR2, y axis TNFR2 binding (MFI). As to the method: The coding sequence of huTNFR2 (Uniprot, P20333) was cloned into a lentiviral vector and the virus was packaged according to the instruction of the virus packaging kit (Lenti-X™ Packaging Single Shots, Cat #631275, Takada). The Expi293 cells were transduced with the recombinant virus and selected by puromycin. The cell line stably expressing huTNFR2 was incubated with anti-TNFR2 antibodies in PBS with 0.5% BSA, 1 mM EDTA, and 0.1% sodium azide (FACS buffer) for 30 minutes at 4° C. The cells were washed, and then incubated with 10 nM phycoerythrin (PE) conjugated anti-Human Fe Ab (Biolegend, cat #409304) for 20 minutes at 4° C. Cells were washed and then […] by flow cytometry with Attune (ThermoFisher Scientific). Data were analyzed with FlowJo software. Antibody binding is represented as median fluorescence intensity (MFI).
FACS based binding and blocking assays of humanized antibodies were performed as described above.
A general note: In flow cytometry, cells or beads pass a laser one at a time.

Assay [4] has as its target T1, human TNFR2 extracellular domain with …. The experiment in a line: BLI (Octet RED96), AHC capture, His-tag-huTNFR2 in solution; antibody sample after 2 weeks at 40 °C. As to the method: as §1
The target is the same in assay [5]. As to the kind of experiment: BLI (Octet RED96), antibody captured on AHC biosensor, His-tag-huTNFR2 in solution, 1:1 model. As to the method:
The following kinetic assay was performed using anti-human IgG Fc capture (AHC) biosensors (ForteBio) in kinetics buffer (PBS, 0.1% Tween-20 and 1% bovine serum albumin): (a) antibody (2 μg/mL) for 300 sec, (b) baseline for 120 sec, (c) association with His-tag-huTNFR2 (2.5, 0.5 and 0 μg/mL) for 420 sec and (d) dissociation for 1200 sec. Data fitting and analysis was performed with Octet data analysis software 8.0 (ForteBio) using a 1:1 binding model after Savitzky-Golay filtering. The dissociation constant (Kd) was calculated as the ratio of Koff/Kon.

Assay [6] concerns the target T3, cynomolgus monkey TNFR2 extracellular domain with C-terminal 10×His tag (cynomolgus monkey, UniProt P20333 23-257 (human entry)).
T3 construct: also called cynoTNFR2-His; His-tag-cynoTNFR2
T3 chain: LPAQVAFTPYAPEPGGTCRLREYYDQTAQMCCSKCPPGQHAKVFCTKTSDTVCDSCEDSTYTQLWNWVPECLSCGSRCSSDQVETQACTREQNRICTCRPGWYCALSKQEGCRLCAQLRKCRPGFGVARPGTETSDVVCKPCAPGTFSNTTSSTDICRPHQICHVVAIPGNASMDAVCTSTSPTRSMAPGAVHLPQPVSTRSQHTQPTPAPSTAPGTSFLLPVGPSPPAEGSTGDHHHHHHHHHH
As to the kind of experiment: BLI (Octet RED96), antibody captured on AHC biosensor, His-tagged TNFR2 in solution, 1:1 model. The method, then:
The following kinetic assay was performed using anti-human IgG Fc capture (AHC) biosensors (ForteBio) in kinetics buffer (PBS, 0.1% Tween-20 and 1% bovine serum albumin): (a) antibody (2 μg/mL) for 300 sec, (b) baseline for 120 sec, (c) association with His-tag-huTNFR2 (2.5, 0.5 and 0 μg/mL) and His-tag-cynoTNFR2 (2.5, 0.5 and 0 μg/mL) for 420 sec and (d) dissociation for 1200 sec. Data fitting and analysis was performed with Octet data analysis software 8.0 (ForteBio) using a 1:1 binding model after Savitzky-Golay filtering.

The target in assay [7] is T4, cynomolgus monkey TNFR2 extracellular domain as used in the blocking ELISA (cynomolgus monkey, UniProt P20333 23-257 (human entry)).
T4 construct: also called cynoTNFR2
T4 chain: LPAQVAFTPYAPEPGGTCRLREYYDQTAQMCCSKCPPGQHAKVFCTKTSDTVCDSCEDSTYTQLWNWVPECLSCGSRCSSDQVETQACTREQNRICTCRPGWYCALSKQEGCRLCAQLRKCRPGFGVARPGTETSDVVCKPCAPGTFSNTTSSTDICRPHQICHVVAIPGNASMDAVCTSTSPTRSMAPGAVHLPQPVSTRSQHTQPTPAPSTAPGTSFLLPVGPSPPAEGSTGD
The experiment in a line: blocking ELISA: antibody pre-mixed with cynoTNFR2, binding of cynoTNFR2 to coated cynomolgus monkey TNFα read out. As to the method: 96-well round bottom ELISA plates were coated overnight at 4° C. with 50 μL/well of 0.5 μg/mL human TNFα recombinant protein (R&D system, Cat #210-TA-100) in coating buffer. After removing the coating solution, blocking buffer was added into the plates followed by incubation at room temperature for 1 hour in order to block unspecific binding. During the blocking period, hybridoma antibodies samples were mixed with 0.5 μg/mL TNFR2-huFc at a 1:1 volume ratio and incubated at room temperature for another 1.5 hours. Then 50 μL/well of antigen-antibody mix solution was transferred into TNFα coated wells and incubated at room temperature for 1.5 hours. Plates were then washed 5 times with wash buffer. Then, 50 μL/well of goats anti-human IgG Fc-AP (Southern Biotech, cat #2014-04) at 1:2000 dilution in assay buffer was added, incubated at room temperature for 1 hour, washed 4 times with wash buffer and developed for 30 minutes with 50 μL/well of pNPP substrate. Plates were analyzed with a Synergy HT (Bio-TEK) at 405 nm. Parental hybridomas with the desired human and cynoTNFR2 binding as well as the ability to block human TNFR2 and human TNFα binding were prioritized for subcloning and further characterization. Subcloning was carried out with limited dilution and visual inspection was performed to ensure clonality. Hybridoma subclones were screened with the same binding and blocking assays and selected positive hits were cryopreserved.
TNFR2 blocking by purified recombinant chimeric antibodies: Human TNFR2 blocking ELISA was performed on purified recombinant chimeric antibodies following the same protocol as described above, except that 50 μL/well of serial dilution of purified antibodies (starting at 10 μg/mL, 1:3 dilution) in assay buffer was added into the reaction. The blocking IC₅₀ value represents the antibody concentration that inhibited 50% of huTNFR2 or cynoTNFR2 binding to coated human TNFα or cynomolgus monkey TNFα.

Assay [8] concerns the target T3, cynomolgus monkey TNFR2 extracellular …. As to the kind of experiment: ELISA, plate coated with His-tagged TNFR2 ECD, serial dilution of chimeric IgG. As to the method: TNFR2 binding of purified recombinant chimeric antibodies: The huTNFR2, cynoTNFR2 antigen binding ELISA was performed on the purified recombinant chimeric antibodies. Briefly, 384-well, clear, flat bottom, high binding plates (VWR, cat #29444-096) were coated overnight at 4° C. with 1 μg/mL of huTNFR2 or cynomolgus monkey TNFR2-His in PBS. After removing the coating solution, the plates were blocked by adding blocking buffer and incubated at room temperature for 1 hour. Plates were then washed 3 times with wash buffer. Serial dilution of purified antibodies in PBS was added to individual well followed by incubation at room temperature for 1 hour. Plates were washed 3 times with wash buffer. Then 50 μL/well of goat anti hu Kappa —AP (Southern Biotech, cat #2061-04) at 1:3000 dilution or goat anti human IgG Fc-AP at 1:3000 dilution in ELISA diluent was added, incubated at room temperature for 1 hour, washed 5 times with wash buffer and developed for 30 minutes with 50 μL/well of pNPP substrate. Plates were analyzed with a Bio-TEK at 405 nm. The chimeric TNFR2 antibodies were tested positive for binding to huTNFR2 and cynoTNFR2. The TNFR2 binding EC50 values are shown in Table 6, FIG. 1A (for huTNFR2) and FIG. 1B (for cynoTNFR2).
(In general: ELISA stands for enzyme-linked immunosorbent assay.)

B1: SB1901-72 humanized anti-TNFR2 antibody (antibody, V domains shown)
VH: QVQLVQSGAEVKKPGASVKVSCKASGYTFTDDYIDWVRQATGQGLEWIGEIYPGSGNTYYNEKFKGRVTMTRDKSISTAYMELSSLRSEDTAVYYCARSQVYGKIAMDHWGQGTLVTVSS
VL: DIVMTQSPDSLAVSLGERATINCRASESVDNSGNSFMHWYQQKPGQPPKLLIYRASNLESGVPDRFSGSGSRTDFTLTISSLQAEDVAVYYCQQSKEDPYTFGQGTKVEIK
Usually Kd stands for a measure of binding affinity in units of concentration. What is called koff is the first-order rate constant of dissociation. A word on the kon: it is a measure of how fast the partners come together. The EC50 (read off the curve) is the concentration needed to bring the measured effect to its halfway point. As to B1, the Kd in assay [1] amounted to 1.06 nM; in assay [2], 1.68 nM; in assay [4], 1.35 nM; in assay [5], 1.11 nM. Also, the dissociation rate constant (koff) in assay [1] is 0.000527 s⁻¹; in assay [2], 0.000495 s⁻¹; in assay [4] it was 0.000471 s⁻¹; in assay [5] it was 0.000456 s⁻¹. In addition, the on-rate (kon) is 497000 M⁻¹ s⁻¹ in assay [1], 295000 M⁻¹ s⁻¹ in assay [2], 348000 M⁻¹ s⁻¹ in assay [4] and 412000 M⁻¹ s⁻¹ in assay [5]. For the same molecule, in assay [3], the 50% effective concentration (EC50 (read off the curve)) is around 0.6 nM.

B2: 51B5 chimeric anti-TNFR2 antibody (antibody, V domains shown)
VH: QVQLQQSGAELARPGTSVKLSCKASGYTFTDDYIDWVKQRTGQGLEWIGEIYPGSGNTYYNEKFKGKATLTADKSSSTAYMQLSSLTSEDSAVYFCARSQVYGKIAMDHWGQGTSVTVSS
VL: DIVLTQSPASLAVSLGQRATISCRASESVDNSGNSFMHWYQQIPGQPPKLLIYRASNLESGIPARFSGSGARTDFTLTIDPVGAVDVATYYCQQSKEDPYTFGGGTKLEIE
notes: Chimeric: mouse variable domains with human constant regions, made as recombinant IgG1
As a reminder, the IC50 is the concentration that gives 50% inhibition. Broadly, the EC50 is the concentration giving half of the maximal effect. In assay [6], B2 showed a Kd of 0.672 nM, a koff of 0.00065 s⁻¹ and a kon of 967000 M⁻¹ s⁻¹. Further, in assay [7], the concentration for half-maximal inhibition (IC50) is 0.968 nM. Besides, in assay [8], it took 0.0494 nM to reach a half-maximal effect (EC50).
